Positions count from the first letter of the chain named. Names may count otherwise. “And” between values parts separate entries of the source, which are not always exact repeats. Equal values may be shown once.
B1: Cas1 from Escherichia coli K12 (MG1655), untagged, purified (enzyme, E. coli K12 (MG1655))
chain: MTWLPLNPIPLKDRVSMIFLQYGQIDVIDGAFVLIDKTGIRTHIPVGSVACIMLEPGTRVSHAAVRLAAQVGTLLVWVGEAGVRVYASGQPGGARSDKLLYQAKLALDEDLRLKVVRKMFELRFGEPAPARRSVEQLRGIEGSRVRATYALLAKQYGVTWNGRRYDPKDWEKGDTINQCISAATSCLYGVTEAAILAAGYAPAIGFVHTGKPLSFVYDIADIIKFDTVVPKAFEIARRNPGEPDREVRLACRDIFRSSKTLAKLIPLIEDVLAAGEIQPPAPPEDAQPVAIPLPVSLGDAGHRSS
B2: Cas1 R252E, purified (enzyme, E. coli K12 (MG1655))
chain: B1 chain with R252E
B3: Cas2 from Escherichia coli K12 (MG1655), untagged, purified (enzyme, E. coli K12 (MG1655))
chain: MSMLVVVTENVPPRLRGRLAIWLLEVRAGVYVGDVSAKIREMIWEQIAGLAEEGNVVMAWATNTETGFEFQTFGLNRRTPVDLDGLRLVSFLPV

What was measured:
[1] = target: B3; assay: AUC
[2] = target: B3; assay: ITC
[3] = target: the molecule itself; assay: crystal structure
[4] = target: the molecule itself; assay: SEC
[5] = target: B1; assay: ITC

Binder | stoichiometry N [1] [Cas1 dimer per Cas2 dimer] | KD of a single run [2] | stoichiometry N [2] | stoichiometry N [3] | stoichiometry N [4] | Kd [5] [nM]
B1 | 1 | 308 nM and 212 nM and 351 nM | ~1.5 Cas1 to Cas2 | 2 | – | –
B2 | – | – | – | – | 2 | –
B3 | – | – | – | 2 | – | ~290

Reference: paper PMC4075942 (Nature structural & molecular biology, 2014)
